Assay [1] deals with PD-1 on T cells (species not stated in these experiments).
Assay [2] has the same target. This is another data set of the same source.
For assay [3] the target is unchanged. The source holds these as a separate data set.
Assay [4] addresses human PD-1 gamma 2a fusion protein (human PD-1 extracellular region fused to murine Ig gamma2a hinge-CH2-CH3) (human; murine) [IgG part: P01863]. Description: ELISA: biotinylated PD-L1Fc on immobilized human PD-1Fc, streptavidin-HRP.
The target in assay [5] is human PD-1 on human T cells or Jurkat T cells (human).
The target is the same in assay [6]. This is another data set of the same source.
Assay [7] shares this target. The source holds these as a separate data set.
Assay [8] has as its target murine PD-1 on mouse T cells (Balb/c LN T cells, DO11.10 CD4+ T cells, TCR transgenic LN T cells) (murine) (UniProt Q02242).

The source of these data is patent US7029674B2.

For the substance “PD-L1.Fc (species not stated in these experiments) (Fc fusion)”, the % CD69+ T cells (flow cytometry), 72 hours in assay [1] amounted to 42 % CD69+. For the same substance, in assay [2], the % IL-2R+ (CD25) T cells (flow cytometry), 79 hours was determined as 15 % IL-2R+. In addition, the % apoptotic T cells (propidium iodide and annexin positive), 72 hours in assay [3] amounted to 12 % apoptotic.
“human PD-L1.Ig (extracellular region of human PD-L1 fused to murine Ig gamma2a hinge-CH2-CH3) (from UniProt P01863) (Fc fusion)” returned an ED50 in assay [4] of 0.108 µg/mL. In assay [5], this substance came in with a proliferation of human CD4+ T cells, suboptimal anti-CD3 (1 µg/ml) with soluble anti-CD28 of 80 % reduction. Besides, in assay [6], the IL-10 secretion (ELISA) by human CD4+ T cells stood at 60 % decrease and the interferon-γ secretion (ELISA) by human CD4+ T cells stood at 80 % decrease. Also, the proliferation (3H-thymidine) of human CD4+ T cells, 96 hours in assay [7] came out at 69 % decrease.
In assay [8], mPD-L1.Fc fusion protein registered a percentage of dividing cells by propidium iodide staining (DNA content), day 4 (% dividing cells) of 11.
